Patent publication US20210030870A1 (STIPE THERAPEUTICS, published 2021)

Target: T1, C-terminal STING (immobilized and purified) (Homo sapiens, UniProt Q86WV6 139-379)
T1 construct: only an unstated C-terminal part stood in the assay; also called immobilized C-terminal STING
Test: SPR (Biacore); C-terminal STING immobilized on the sensor chip
Experimental: For the surface plasmon resonance (SPR) analyses, BlAcore sensor chips (type CMS; Biacore, Uppsala, SE) were activated with a 1:1 mixture of 0.2 M N-ethyl-N′-(3-dimethylaminopropyl) carbodiimide and 0.05 M N-hydroxysuccinimide in water according to the manufacturer. C-terminal STING was immobilized. The SPR signal from immobilized C-terminal STING generated BlAcore resonance units (RU) that were equivalent to 66 fmol/mm2. The flow cells were regenerated with 20 μl of 1.5 M glycine-HCI (pH 3.0). The flow buffer was 10 mM HEPES, 150 mM NaCl, 1.5 mM CaCl2, and 1 mM EGTA (pH 7.4). The binding data was analyzed using the BIAevaluation program. The number of ligands bound per immobilized receptor was estimated by dividing the ratio RU ligand/mass ligand with RU receptor/mass receptor. The Kd for binding was estimated using a BIA evaluation program.

T1 sequence (Q86WV6 139-379 limits assumed): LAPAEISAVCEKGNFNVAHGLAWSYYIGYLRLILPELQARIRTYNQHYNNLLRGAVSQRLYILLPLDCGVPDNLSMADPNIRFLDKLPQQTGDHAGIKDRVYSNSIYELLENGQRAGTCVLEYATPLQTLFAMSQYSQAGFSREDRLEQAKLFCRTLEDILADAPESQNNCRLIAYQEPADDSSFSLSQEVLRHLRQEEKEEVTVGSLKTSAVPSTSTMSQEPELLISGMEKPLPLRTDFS

B1: PEP301, PB1 domain fragment peptide of human P62 (peptide)
peptide: FSFCCSPEPEAEAEAAAGPGGRKKRRQRRRPQ
notes: also called Sp62-301; PB1-domain peptide PEP301
B1 showed a Kd of 746 nM.
